Measurements published in US20060257938A1, “Method of screening for drugs that block ligand binding to a lipid binding protein” (priority 2005, published 2006).
“And” between values parts separate entries of the source, which are not always exact repeats. Equal values may be shown once.

Experiments:
Format in all cases: binding
[1] = Probe fluorescence ratio response to linoleic acid relative to ADIFAB2; details: response relative to ADIFAB2
Procedure, shortened: (§1)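 Fluorescently labeled rat intestinal FABP variants were read at two emission wavelengths, near the unbound maximum (about 420 to 480 nm) and the FFA-bound maximum (about 495 to 580 nm). R = Fλ1/Fλ2 after subtracting probe-free intensity; ΔR = R+agent − R0, normalized to ADIFAB2 (rI-FABP-L72A).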

[2] = Probe fluorescence ratio response to arachidonic acid relative to ADIFAB2; details: arachidonic acid; response relative to ADIFAB2
Procedure, shortened: as §1

[3] = Probe fluorescence ratio response to palmitic acid relative to ADIFAB2; details: response relative to ADIFAB2
Procedure, shortened: as §1

[4] = Probe fluorescence ratio response to oleic acid relative to ADIFAB2; details: response relative to ADIFAB2
Procedure, shortened: as §1

[5] = Probe fluorescence ratio response to linolenic acid relative to ADIFAB2; details: response relative to ADIFAB2
Procedure, shortened: as §1

Molecule | DR/DR LA [1] | DR/DR AA [2] | DR/DR PA [3] | DR/DR OA [4] | DR/DR LNA [5]
34S, 72A (protein, listed as Rattus norvegicus, PEPTIDE (1)...(131) wild-type rat intestinal fatty acid binding protein) AFDGTWKVDRNENYEKFMEKMGINVVKRKLGAHSNLKLTITQEGNKFTVKESSNFRNIDVVFELGVDFAYSAADGTELTGTWTMEGNKLVGKFKRVDNGKELIAVREISGNELIQTYTYEGVEAKRIFKKE | 0.65 | 0.58 | 0.43 | 0.58 | 0.59
36D1, 72A (protein, listed as Rattus norvegicus, PEPTIDE (1)...(131) wild-type rat intestinal fatty acid binding protein) AFDGTWKVDRNENYEKFMEKMGINVVKRKLGAHDNDKLTITQEGNKFTVKESSNFRNIDVVFELGVDFAYSAADGTELTGTWTMEGNKLVGKFKRVDNGKELIAVREISGNELIQTYTYEGVEAKRIFKKE | 0.27 | 0.20 | 0.18 | 0.20 | 0.21
34V, 72A (protein, listed as Rattus norvegicus, PEPTIDE (1)...(131) wild-type rat intestinal fatty acid binding protein) AFDGTWKVDRNENYEKFMEKMGINVVKRKLGAHVNLKLTITQEGNKFTVKESSNFRNIDVVFELGVDFAYSAADGTELTGTWTMEGNKLVGKFKRVDNGKELIAVREISGNELIQTYTYEGVEAKRIFKKE | 1.15 | 1.22 | 1.11 | 1.19 | 1.21
36E2, 72A (protein, listed as Rattus norvegicus, PEPTIDE (1)...(131) wild-type rat intestinal fatty acid binding protein) AFDGTWKVDRNENYEKFMEKMGINVVKRKLGAHDNEKLTITQEGNKFTVKESSNFRNIDVVFELGVDFAYSAADGTELTGTWTMEGNKLVGKFKRVDNGKELIAVREISGNELIQTYTYEGVEAKRIFKKE | 0.25 | 0.24 | 0.19 | 0.20 | 0.23
36G2, 72A (protein, listed as Rattus norvegicus, PEPTIDE (1)...(131) wild-type rat intestinal fatty acid binding protein) AFDGTWKVDRNENYEKFMEKMGINVVKRKLGAHDNGKLTITQEGNKFTVKESSNFRNIDVVFELGVDFAYSAADGTELTGTWTMEGNKLVGKFKRVDNGKELIAVREISGNELIQTYTYEGVEAKRIFKKE | 1.17 | 1.00 | 0.55 | 0.97 | 1.16
36A, 72A (protein, listed as Rattus norvegicus, PEPTIDE (1)...(131) wild-type rat intestinal fatty acid binding protein) AFDGTWKVDRNENYEKFMEKMGINVVKRKLGAHDNAKLTITQEGNKFTVKESSNFRNIDVVFELGVDFAYSAADGTELTGTWTMEGNKLVGKFKRVDNGKELIAVREISGNELIQTYTYEGVEAKRIFKKE | 0.51 | 0.53 | 0.46 | 0.46 | 0.50
34Y, 72A (protein, listed as Rattus norvegicus, PEPTIDE (1)...(131) wild-type rat intestinal fatty acid binding protein) AFDGTWKVDRNENYEKFMEKMGINVVKRKLGAHYNLKLTITQEGNKFTVKESSNFRNIDVVFELGVDFAYSAADGTELTGTWTMEGNKLVGKFKRVDNGKELIAVREISGNELIQTYTYEGVEAKRIFKKE | 1.24 | 1.22 | 1.06 | 1.19 | 1.22
36F1, 72A (protein, listed as Rattus norvegicus, PEPTIDE (1)...(131) wild-type rat intestinal fatty acid binding protein) AFDGTWKVDRNENYEKFMEKMGINVVKRKLGAHDNFKLTITQEGNKFTVKESSNFRNIDVVFELGVDFAYSAADGTELTGTWTMEGNKLVGKFKRVDNGKELIAVREISGNELIQTYTYEGVEAKRIFKKE | 0.67 | 0.66 | 0.52 | 0.55 | 0.66
36I1, 72A (protein, listed as Rattus norvegicus, PEPTIDE (1)...(131) wild-type rat intestinal fatty acid binding protein) AFDGTWKVDRNENYEKFMEKMGINVVKRKLGAHDNIKLTITQEGNKFTVKESSNFRNIDVVFELGVDFAYSAADGTELTGTWTMEGNKLVGKFKRVDNGKELIAVREISGNELIQTYTYEGVEAKRIFKKE | 1.11 | 1.01 | 0.80 | 0.95 | 1.13
34T, 72A (protein, listed as Rattus norvegicus, PEPTIDE (1)...(131) wild-type rat intestinal fatty acid binding protein) AFDGTWKVDRNENYEKFMEKMGINVVKRKLGAHTNLKLTITQEGNKFTVKESSNFRNIDVVFELGVDFAYSAADGTELTGTWTMEGNKLVGKFKRVDNGKELIAVREISGNELIQTYTYEGVEAKRIFKKE | 0.64 | 0.61 | 0.40 | 0.53 | 0.67
36C3, 72A (protein, listed as Rattus norvegicus, PEPTIDE (1)...(131) wild-type rat intestinal fatty acid binding protein) AFDGTWKVDRNENYEKFMEKMGINVVKRKLGAHDNCKLTITQEGNKFTVKESSNFRNIDVVFELGVDFAYSAADGTELTGTWTMEGNKLVGKFKRVDNGKELIAVREISGNELIQTYTYEGVEAKRIFKKE | −0.36 | −0.22 | −0.21 | −0.40 | −0.30
36H1, 72A (protein, listed as Rattus norvegicus, PEPTIDE (1)...(131) wild-type rat intestinal fatty acid binding protein) AFDGTWKVDRNENYEKFMEKMGINVVKRKLGAHDNHKLTITQEGNKFTVKESSNFRNIDVVFELGVDFAYSAADGTELTGTWTMEGNKLVGKFKRVDNGKELIAVREISGNELIQTYTYEGVEAKRIFKKE | 0.81 | 0.76 | 0.40 | 0.77 | 0.86
34W, 72A (protein, listed as Rattus norvegicus, PEPTIDE (1)...(131) wild-type rat intestinal fatty acid binding protein) AFDGTWKVDRNENYEKFMEKMGINVVKRKLGAHWNLKLTITQEGNKFTVKESSNFRNIDVVFELGVDFAYSAADGTELTGTWTMEGNKLVGKFKRVDNGKELIAVREISGNELIQTYTYEGVEAKRIFKKE | 1.34 and 1.110 | 1.31 and 1.060 | 0.93 and 0.920 | 1.38 and 1.210 | 1.37 and 1.130
102N, 72A (protein, listed as Rattus norvegicus, PEPTIDE (1)...(131) wild-type rat intestinal fatty acid binding protein) AFDGTWKVDRNENYEKFMEKMGINVVKRKLGAHDNLKLTITQEGNKFTVKESSNFRNIDVVFELGVDFAYSAADGTELTGTWTMEGNKLVGKFKRVDNGKENIAVREISGNELIQTYTYEGVEAKRIFKKE | 0.67 | 0.64 | −1.09 | 0.69 | 0.71
36K, 72A (protein, listed as Rattus norvegicus, PEPTIDE (1)...(131) wild-type rat intestinal fatty acid binding protein) AFDGTWKVDRNENYEKFMEKMGINVVKRKLGAHDNKKLTITQEGNKFTVKESSNFRNIDVVFELGVDFAYSAADGTELTGTWTMEGNKLVGKFKRVDNGKELIAVREISGNELIQTYTYEGVEAKRIFKKE | 0.38 | 0.38 | 0.16 | 0.41 | 0.42
